From US20240228572A1 (I2O THERAPEUTICS, published 2024)
*1 amine or outer side, *2 acyl side, *3 side chain or, on linkers, in order; H or OH if unused. Bridges are numbered along the chain shown (N, C = ends). Primed or numbered codes have the meaning given here. Where no end group is shown, it is not given here. Side-chain parts run from the residue outwards. [ ]: non-standard residue; d: D form. The star is where a group is joined. dpeg″ = spacer —[CO(CH2)O(CH2)2O(CH2)NH]—, O=C(COCCOCN[*:1])[*:2]; C20 diacid = O=C(O)CCCCCCCCCCCCCCCCCCC(=O)*; γGlu = O=C(O)[C@H](CCC(=O)[*:2])N[*:1]; Aib = CC(C)(N)C(=O)O

What was measured:
[1] = target: human GLP-1 receptor (GLP-1R) (human, UniProt P43220 24-463); assay: cell-based or functional assay
human GLP-1 receptor (GLP-1R), sequence (P43220 24-463): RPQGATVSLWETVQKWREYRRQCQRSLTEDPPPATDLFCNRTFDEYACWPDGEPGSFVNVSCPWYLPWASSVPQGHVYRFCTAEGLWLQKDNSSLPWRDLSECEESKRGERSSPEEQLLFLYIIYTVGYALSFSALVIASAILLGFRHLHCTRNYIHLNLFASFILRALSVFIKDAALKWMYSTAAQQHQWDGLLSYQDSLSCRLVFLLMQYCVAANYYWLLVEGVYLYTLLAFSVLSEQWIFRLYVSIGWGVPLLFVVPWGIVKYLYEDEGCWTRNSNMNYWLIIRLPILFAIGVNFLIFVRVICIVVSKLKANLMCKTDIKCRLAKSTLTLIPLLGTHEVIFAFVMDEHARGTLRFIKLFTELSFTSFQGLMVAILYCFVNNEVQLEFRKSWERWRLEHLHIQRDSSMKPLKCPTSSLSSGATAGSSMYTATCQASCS

[2] = target: human Glucagon receptor (GCGR) (human, UniProt P47871 26-477); assay: cell-based or functional assay

Row | Binder | pEC50, cAMP accumulation [1] | pEC50, cAMP accumulation [2]
1 | YSHGTFTSDYSKYLDK([γGlu-γGlu-dpeg″-C20 diacid])KYAEKFVKWLEDEPSSGAPPPS-NH2 (lactam 20-24) [Compound A34] | < 9 pEC50 (-log M) | 11.9 pEC50 (-log M)
2 | YSHGTFTSDYSKYLDK([γGlu-γGlu-dpeg″-C20 diacid])KYAEKFVKWLESEPSSGAPPPS-OH (lactam 20-24) [Compound A28] | < 9 pEC50 (-log M) | 11.7 pEC50 (-log M)
3 | YSHGTFTSDYSKYLDK([γGlu-γGlu-dpeg″-C20 diacid])KYAEKFVKWLEKEPSSGAPPPS-OH (lactam 20-24) [Compound A26] | < 9 pEC50 (-log M) | 11.1 pEC50 (-log M)
4 | YSHGTFTSDYSKYLDK([γGlu-γGlu-dpeg″-C20 diacid])KYAEKFVKWLENEPSSGAPPPS-OH (lactam 20-24) [Compound A27] | < 9 pEC50 (-log M) | 12 pEC50 (-log M)
5 | Ac-YSHGTFTSDYSKYLD[Aib]KYAQK([γGlu-γGlu-dpeg″-C20 diacid])FVKWLEEEPSSGAPPPS-OH (lactam 24-28; SMILES CC(=O)N[C@@H](Cc1ccc(O)cc1)C(=O)N[C@@H](CO)C(=O)N[C@@H](Cc1c[nH]cn1)C(=O)NCC(=O)N[C@H](C(=O)N[C@@H](Cc1ccccc1)C(=O)N[C@H](C(=O)N[C@@H](CO)C(=O)N[C@@H](CC(=O)O)C(=O)N[C@@H](Cc1ccc(O)cc1)C(=O)N[C@@H](CO)C(=O)N[C@@H](CCCCN)C(=O)N[C@@H](Cc1ccc(O)cc1)C(=O)N[C@@H](CC(C)C)C(=O)N[C@@H](CC(=O)O)C(=O)NC(C)(C)C(=O)N[C@@H](CCCCN)C(=O)N[C@@H](Cc1ccc(O)cc1)C(=O)N[C@@H](C)C(=O)N[C@@H](CCC(N)=O)C(=O)N[C@@H](CCCCNC(=O)CC[C@H](NC(=O)CC[C@H](NC(=O)COCCOCNC(=O)CCCCCCCCCCCCCCCCCCC(=O)O)C(=O)O)C(=O)O)C(=O)N[C@@H](Cc1ccccc1)C(=O)N[C@H](C(=O)N[C@H]1CCCCNC(=O)CC[C@@H](C(=O)N[C@@H](CCC(=O)O)C(=O)N2CCC[C@H]2C(=O)N[C@@H](CO)C(=O)N[C@@H](CO)C(=O)NCC(=O)N[C@@H](C)C(=O)N2CCC[C@H]2C(=O)N2CCC[C@H]2C(=O)N2CCC[C@H]2C(=O)N[C@@H](CO)C(=O)O)NC(=O)[C@H](CCC(=O)O)NC(=O)[C@H](CC(C)C)NC(=O)[C@H](Cc2c[nH]c3ccccc23)NC1=O)C(C)C)[C@@H](C)O)[C@@H](C)O) [Compound A36] | < 9 pEC50 (-log M) | 10.8 pEC50 (-log M)
6 | YSHGTFTSDYSKYLD[Aib]KYAQK([γGlu-γGlu-dpeg″-C20 diacid])FVKWLEDEPSSGAPPPS-OH (lactam 24-28) [Compound A30] | < 9 pEC50 (-log M) | 12.5 pEC50 (-log M)
7 | YSHGTFTSDYSKYLDK([γGlu-γGlu-dpeg″-C20 diacid])KYAEKFVKWLEDEPSSGKPPPS-OH (lactam 20-24) [Compound A32] | < 9 pEC50 (-log M) | 11.7 pEC50 (-log M)
8 | YSHGTFTSDYSKYLDK([γGlu-γGlu-dpeg″-C20 diacid])KYAEKFVKWLEDE-NH2 (lactam 20-24) [Compound A35] | < 9 pEC50 (-log M) | 11.9 pEC50 (-log M)
9 | YSHGTFTSDYSKYLDK([γGlu-γGlu-dpeg″-C20 diacid])KYAEKFVKWLEDEPSSGEPPPS-OH (lactam 20-24) [Compound A31] | < 9 pEC50 (-log M) | 11.9 pEC50 (-log M)
10 | YSHGTFTSDYSKYLDK([γGlu-γGlu-dpeg″-C20 diacid])KYAEKFVKWLEDEPSSGSPPPS-OH (lactam 20-24) [Compound A33] | < 9 pEC50 (-log M) | 11.9 pEC50 (-log M)
